Target: HSPB1 wild-type (human, UniProt P04792 1-205)
Assay: NMR titration

Chain of HSPB1 wild-type (P04792 whole entry): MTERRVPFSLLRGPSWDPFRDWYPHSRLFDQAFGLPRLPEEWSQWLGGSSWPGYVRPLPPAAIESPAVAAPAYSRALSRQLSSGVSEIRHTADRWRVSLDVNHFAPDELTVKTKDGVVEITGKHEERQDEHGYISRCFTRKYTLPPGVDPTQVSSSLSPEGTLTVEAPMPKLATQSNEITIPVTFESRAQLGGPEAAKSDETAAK

B1: TDP-43 LCD (domain or fragment, UniProt Q13148 274-414, looked up)
chain: GRFGGNPGGFGNQGGFGNSRGGGAGLGNNQGSNMGGGMNFGAFSINPAMMAAAQAALQSSWGMMGMLASQQNQSGPSGNNQNQGNMQREPNQAFGSGNNSYSGSNSGAAIGWGSASNAGSGSGFNGGFGSSMDSKSSGWGM
binding result: binds

— paper PMC9872726 (Nature cell biology, 2022)
